In the supplement of paper PMC7877785:
± gives the uncertainty stated by the source.

Assay: self-splicing fitness, log relative to wild type (ln ratio); higher = more splicing; Tetrahymena group I intron in knt gene, E. coli kanamycin selection, DiMSum; sequences stand for … in CUCUCU…GGAGGGAAAAGUUAUCAGGCAUGCACCUGGUAGCUAGUCUUUAAACCAAUAGAUUGCAUCGGUUUAAAAGGCAAGACCGUCAAAUUGCGGGAAAGGGGUCAACAGCCGUUCAGUACCAAGUCUCAGGGGAAACUUUGAGAUGGCCUUGCAAAGGGUAUGGUAAUAAGCUGACGGACAUGGUCCUAACCACGCAGCCAAGUCCUAAGUCAACAGAUCUUCUGUUGAUAUGGAUGCAGUUCACAGACUAAAUGUCGGUCGGGGAAGAUGUAUUCUUCUCAUAAGAUAUAGUCGGACCUCUCCUUAAUGGGAGCUAGCGGAUGAAGUGAUGCAACACUGGAGCCGCUGGGAACUAAUUUGUAUGCGAAAGUAUAUUGAUUAGUUUUGGAGUACUCGUGGUCG
Outline: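 A randomised library covering all eight P1ex-region intron nucleotides was built with the intron in the knt kanamycin-resistance gene on pET-22b(+) and held in E. coli BL21(DE3). Cells were grown overnight at 37°C or 30°C on LB agar, with or without 25 μg/mL kanamycin, plus 100 μg/mL carbenicillin, 50 μM IPTG and 0.2% rhamnose, and pooled colonies were amplicon-sequenced on an Illumina HiSeq 2500. DiMSum fitness is the error-weighted combination of wild-type-normalised replicate fold changes, kanamycin versus none.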

Sequence | self-splicing fitness (ln) (30 °C) | self-splicing fitness (ln) (37 °C)
GACAAGCAAUAUUACGCGCG | -0.648 ± 0.091 | -0.467 ± 0.11
GACAAGCAAUAUUACGCGGA | -2.24 ± 0.16 | -1.25 ± 0.13
GACAAGCAAUAUUACGCUAG | -2.28 ± 0.081 | -1.36 ± 0.089
GACAAGCAAUAUUACGCUCG | -1.47 ± 0.17 | -0.891 ± 0.21
GACAAGCAAUAUUACGGAUC | -1.19 ± 0.13 | -0.182 ± 0.15
GACAAGCAAUAUUACGGGGC | -3.36 ± 0.18 | -2.81 ± 0.23
GACAAGCAAUAUUACGGUAA | -1.69 ± 0.11 | -0.907 ± 0.11
GACAAGCAAUAUUACGGUCC | -3.13 ± 0.2 | -1.83 ± 0.29
GACAAGCAAUAUUACGUAAC | -1.64 ± 0.077 | -1.22 ± 0.11
GACAAGCAAUAUUACGUACA | -0.573 ± 0.055 | -0.314 ± 0.079
GACAAGCAAUAUUACGUCGA | -2.53 ± 0.09 | -1.24 ± 0.078
GACAAGCAAUAUUACGUCGG | -2.91 ± 0.14 | -2.43 ± 0.18
GACAAGCAAUAUUACGUGAG | -2.28 ± 0.058 | -1.43 ± 0.06
GACAAGCAAUAUUACGUGCG | -1.16 ± 0.068 | -0.532 ± 0.081
GACAAGCAAUAUUACGUGUG | -2.78 ± 0.078 | -1.56 ± 0.083
GACCAGCAAUAUUACGACCA | -0.124 ± 0.17 | -0.054 ± 0.15
GACCAGCAAUAUUACGACCG | -0.572 ± 0.11 | -0.318 ± 0.17
GACCAGCAAUAUUACGAGGC | -3.02 ± 0.13 | -0.778 ± 0.091
GACCAGCAAUAUUACGAUCC | -1.93 ± 0.14 | -1.27 ± 0.17
GACCAGCAAUAUUACGCAAA | -1.75 ± 0.11 | -0.859 ± 0.1
GACCAGCAAUAUUACGCAAG | -1.81 ± 0.089 | -1.15 ± 0.11
GACCAGCAAUAUUACGCACC | -0.0772 ± 0.089 | -1.06 ± 0.11
GACCAGCAAUAUUACGCAUA | -0.474 ± 0.058 | -0.452 ± 0.074
GACCAGCAAUAUUACGCCGA | -0.69 ± 0.14 | -0.272 ± 0.15
GACCAGCAAUAUUACGCGUA | -0.76 ± 0.059 | -0.392 ± 0.068

Sequence | self-splicing fitness (ln) (30 °C) | self-splicing fitness (ln) (37 °C)
GACCAGCAAUAUUACGCUCC | -2.32 ± 0.22 | -1.83 ± 0.21
GACCAGCAAUAUUACGGAGG | -2.04 ± 0.068 | -0.681 ± 0.07
GACCAGCAAUAUUACGGCAU | 0.00655 ± 0.046 | 0.553 ± 0.068
GACCAGCAAUAUUACGGGAU | -1.71 ± 0.084 | -0.575 ± 0.099
GACCAGCAAUAUUACGGGCC | -3.69 ± 0.15 | -2.26 ± 0.21
GACCAGCAAUAUUACGGGCU | -2.93 ± 0.14 | -1.96 ± 0.14
GACCAGCAAUAUUACGGUCC | -2.95 ± 0.17 | –
GACCAGCAAUAUUACGGUUG | -0.661 ± 0.053 | -0.341 ± 0.062
GACCAGCAAUAUUACGUAGC | -0.693 ± 0.069 | -0.496 ± 0.082
GACCAGCAAUAUUACGUGGA | -1.67 ± 0.078 | -0.914 ± 0.081
GACCAGCAAUAUUACGUUCG | -2.05 ± 0.073 | -0.063 ± 0.074
GACCAGCAAUAUUACGUUGA | -0.701 ± 0.053 | -0.203 ± 0.066
GACCAGCAAUAUUACGUUGG | -3.95 ± 0.13 | -2.53 ± 0.12
GACGAGCAAUAUUACGAAAC | -4.29 ± 0.3 | -3.14 ± 0.28
GACGAGCAAUAUUACGAAGA | -3.31 ± 0.27 | –
GACGAGCAAUAUUACGACCU | -2.01 ± 0.15 | 0.0378 ± 0.16
GACGAGCAAUAUUACGACGU | -2.31 ± 0.23 | -1.13 ± 0.25
GACGAGCAAUAUUACGAUGC | -3.82 ± 0.44 | -0.275 ± 0.21
GACGAGCAAUAUUACGCACC | -3.06 ± 0.15 | -0.796 ± 0.12
GACGAGCAAUAUUACGCCGU | -2.58 ± 0.45 | –
GACGAGCAAUAUUACGCGGA | -2.74 ± 0.23 | -2.87 ± 0.36
GACGAGCAAUAUUACGCGGC | -3.25 ± 0.29 | –
GACGAGCAAUAUUACGCUAU | -3.39 ± 0.2 | -2.42 ± 0.25
GACGAGCAAUAUUACGCUGG | – | -2.79 ± 0.43
